This is an account of results in paper PMC10145791.

The target of test [1] is recombinant human neuropilin-1 (human) (UniProt O14786). The experiment in a line: SPR; SPRi, stage 1: mixtures of NRP-1 (1 ng/mL) with VEGF-A (0.01, 0.10, 1.00, 10.0 ng/mL) dropped onto the immobilised mouse monoclonal anti-NRP-1 antibody (200 ng/mL on cysteamine/gold); read-out is the free NRP-1 that the antibody captures (recovery %); pH 7.4, 10 min.
Another test concerns the target VEGF-A165 (Homo sapiens) (UniProt P15692). Conditions: cited from earlier work.

pKd: −log10 of the molar value.

On to “vascular endothelial growth factor VEGFA (from UniProt P15692 1-395) (ligand)”, for which, in test [1], the recovery of free NRP-1 (1 ng/mL added) on the antibody with 0.01 ng/mL VEGF-A came out at 98%, the recovery of free NRP-1 (1 ng/mL added) on the antibody with 0.10 ng/mL VEGF-A was found to be 85%, the recovery of free NRP-1 (1 ng/mL added) on the antibody with 1.00 ng/mL VEGF-A stood at 36% and the recovery of free NRP-1 (1 ng/mL added) on the antibody with 10.0 ng/mL VEGF-A was < 1%.

As for “neuropilin-1 soluble (from UniProt O14786)”, in the test with VEGF-A165 (Homo sapiens), the negative-log Kd (pKd) is 8.12.

By pKd is commonly meant the Kd on a negative log10 scale, so that one unit is a factor of ten.
